The numbers were not newly measured in PMC7226344, which cites them from elsewhere.

Data set [1] concerns the target Cav3.2 (Homo sapiens) (UniProt O95180).
Data set [2] concerns the target Cav3.1 (Rattus norvegicus) (UniProt O54898).
Sequence of UniProt O54898 (O54898 whole entry): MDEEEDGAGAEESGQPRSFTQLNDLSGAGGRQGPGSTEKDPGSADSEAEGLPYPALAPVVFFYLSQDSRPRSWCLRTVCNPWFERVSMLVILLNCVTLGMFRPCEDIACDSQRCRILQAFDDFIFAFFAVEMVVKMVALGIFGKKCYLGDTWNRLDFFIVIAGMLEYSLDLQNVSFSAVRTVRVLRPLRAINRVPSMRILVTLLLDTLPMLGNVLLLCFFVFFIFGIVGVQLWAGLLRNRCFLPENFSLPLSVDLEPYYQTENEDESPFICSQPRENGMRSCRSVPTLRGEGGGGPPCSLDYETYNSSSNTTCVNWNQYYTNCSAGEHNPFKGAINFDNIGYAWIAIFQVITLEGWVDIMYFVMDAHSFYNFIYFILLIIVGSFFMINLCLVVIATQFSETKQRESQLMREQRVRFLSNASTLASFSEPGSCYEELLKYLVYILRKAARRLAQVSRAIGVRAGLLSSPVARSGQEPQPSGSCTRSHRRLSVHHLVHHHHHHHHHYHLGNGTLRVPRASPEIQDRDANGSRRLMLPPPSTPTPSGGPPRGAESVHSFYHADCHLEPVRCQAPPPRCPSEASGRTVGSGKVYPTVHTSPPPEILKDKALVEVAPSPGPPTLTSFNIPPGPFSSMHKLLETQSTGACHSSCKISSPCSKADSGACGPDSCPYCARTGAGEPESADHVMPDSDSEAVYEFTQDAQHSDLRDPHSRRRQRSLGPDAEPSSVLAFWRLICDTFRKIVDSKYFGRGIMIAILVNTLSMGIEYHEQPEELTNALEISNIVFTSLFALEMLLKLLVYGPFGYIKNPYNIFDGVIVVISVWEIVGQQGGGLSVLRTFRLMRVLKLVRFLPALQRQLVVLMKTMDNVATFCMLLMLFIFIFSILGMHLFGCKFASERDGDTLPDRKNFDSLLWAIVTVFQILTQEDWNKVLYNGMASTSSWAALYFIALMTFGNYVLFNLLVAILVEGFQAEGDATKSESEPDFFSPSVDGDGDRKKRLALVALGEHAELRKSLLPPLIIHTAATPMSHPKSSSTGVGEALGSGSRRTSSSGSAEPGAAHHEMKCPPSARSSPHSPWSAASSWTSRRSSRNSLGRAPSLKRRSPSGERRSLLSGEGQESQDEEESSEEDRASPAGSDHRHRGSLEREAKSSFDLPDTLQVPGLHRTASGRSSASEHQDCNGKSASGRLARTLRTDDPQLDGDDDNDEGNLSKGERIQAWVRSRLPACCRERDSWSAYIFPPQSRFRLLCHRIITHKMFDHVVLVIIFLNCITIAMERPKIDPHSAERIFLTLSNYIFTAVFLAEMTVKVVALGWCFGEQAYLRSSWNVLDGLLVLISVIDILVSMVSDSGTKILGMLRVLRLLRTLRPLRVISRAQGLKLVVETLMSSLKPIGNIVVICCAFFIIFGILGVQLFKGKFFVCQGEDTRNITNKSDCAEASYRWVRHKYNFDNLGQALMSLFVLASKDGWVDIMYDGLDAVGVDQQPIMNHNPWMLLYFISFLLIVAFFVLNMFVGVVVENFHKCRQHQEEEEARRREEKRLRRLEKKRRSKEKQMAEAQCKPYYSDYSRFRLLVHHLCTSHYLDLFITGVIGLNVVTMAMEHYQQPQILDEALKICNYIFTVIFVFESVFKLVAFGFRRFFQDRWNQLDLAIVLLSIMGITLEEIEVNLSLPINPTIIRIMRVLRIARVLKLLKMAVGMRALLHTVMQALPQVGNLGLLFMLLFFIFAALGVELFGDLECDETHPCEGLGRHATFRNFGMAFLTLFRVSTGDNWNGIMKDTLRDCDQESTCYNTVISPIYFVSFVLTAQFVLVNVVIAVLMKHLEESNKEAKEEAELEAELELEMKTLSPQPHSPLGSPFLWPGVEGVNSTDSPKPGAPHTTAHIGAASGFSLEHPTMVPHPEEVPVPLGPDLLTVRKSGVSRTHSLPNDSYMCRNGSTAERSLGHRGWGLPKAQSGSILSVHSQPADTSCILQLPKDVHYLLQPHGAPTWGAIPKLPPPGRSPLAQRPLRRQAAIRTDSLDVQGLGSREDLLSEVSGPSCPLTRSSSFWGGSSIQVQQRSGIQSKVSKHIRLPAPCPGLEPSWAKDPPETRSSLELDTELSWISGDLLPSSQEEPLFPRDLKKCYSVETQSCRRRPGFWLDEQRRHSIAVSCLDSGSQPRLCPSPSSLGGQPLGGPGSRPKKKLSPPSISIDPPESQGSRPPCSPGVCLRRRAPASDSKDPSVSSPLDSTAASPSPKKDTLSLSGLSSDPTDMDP

Sequence of UniProt O95180 (O95180 whole entry): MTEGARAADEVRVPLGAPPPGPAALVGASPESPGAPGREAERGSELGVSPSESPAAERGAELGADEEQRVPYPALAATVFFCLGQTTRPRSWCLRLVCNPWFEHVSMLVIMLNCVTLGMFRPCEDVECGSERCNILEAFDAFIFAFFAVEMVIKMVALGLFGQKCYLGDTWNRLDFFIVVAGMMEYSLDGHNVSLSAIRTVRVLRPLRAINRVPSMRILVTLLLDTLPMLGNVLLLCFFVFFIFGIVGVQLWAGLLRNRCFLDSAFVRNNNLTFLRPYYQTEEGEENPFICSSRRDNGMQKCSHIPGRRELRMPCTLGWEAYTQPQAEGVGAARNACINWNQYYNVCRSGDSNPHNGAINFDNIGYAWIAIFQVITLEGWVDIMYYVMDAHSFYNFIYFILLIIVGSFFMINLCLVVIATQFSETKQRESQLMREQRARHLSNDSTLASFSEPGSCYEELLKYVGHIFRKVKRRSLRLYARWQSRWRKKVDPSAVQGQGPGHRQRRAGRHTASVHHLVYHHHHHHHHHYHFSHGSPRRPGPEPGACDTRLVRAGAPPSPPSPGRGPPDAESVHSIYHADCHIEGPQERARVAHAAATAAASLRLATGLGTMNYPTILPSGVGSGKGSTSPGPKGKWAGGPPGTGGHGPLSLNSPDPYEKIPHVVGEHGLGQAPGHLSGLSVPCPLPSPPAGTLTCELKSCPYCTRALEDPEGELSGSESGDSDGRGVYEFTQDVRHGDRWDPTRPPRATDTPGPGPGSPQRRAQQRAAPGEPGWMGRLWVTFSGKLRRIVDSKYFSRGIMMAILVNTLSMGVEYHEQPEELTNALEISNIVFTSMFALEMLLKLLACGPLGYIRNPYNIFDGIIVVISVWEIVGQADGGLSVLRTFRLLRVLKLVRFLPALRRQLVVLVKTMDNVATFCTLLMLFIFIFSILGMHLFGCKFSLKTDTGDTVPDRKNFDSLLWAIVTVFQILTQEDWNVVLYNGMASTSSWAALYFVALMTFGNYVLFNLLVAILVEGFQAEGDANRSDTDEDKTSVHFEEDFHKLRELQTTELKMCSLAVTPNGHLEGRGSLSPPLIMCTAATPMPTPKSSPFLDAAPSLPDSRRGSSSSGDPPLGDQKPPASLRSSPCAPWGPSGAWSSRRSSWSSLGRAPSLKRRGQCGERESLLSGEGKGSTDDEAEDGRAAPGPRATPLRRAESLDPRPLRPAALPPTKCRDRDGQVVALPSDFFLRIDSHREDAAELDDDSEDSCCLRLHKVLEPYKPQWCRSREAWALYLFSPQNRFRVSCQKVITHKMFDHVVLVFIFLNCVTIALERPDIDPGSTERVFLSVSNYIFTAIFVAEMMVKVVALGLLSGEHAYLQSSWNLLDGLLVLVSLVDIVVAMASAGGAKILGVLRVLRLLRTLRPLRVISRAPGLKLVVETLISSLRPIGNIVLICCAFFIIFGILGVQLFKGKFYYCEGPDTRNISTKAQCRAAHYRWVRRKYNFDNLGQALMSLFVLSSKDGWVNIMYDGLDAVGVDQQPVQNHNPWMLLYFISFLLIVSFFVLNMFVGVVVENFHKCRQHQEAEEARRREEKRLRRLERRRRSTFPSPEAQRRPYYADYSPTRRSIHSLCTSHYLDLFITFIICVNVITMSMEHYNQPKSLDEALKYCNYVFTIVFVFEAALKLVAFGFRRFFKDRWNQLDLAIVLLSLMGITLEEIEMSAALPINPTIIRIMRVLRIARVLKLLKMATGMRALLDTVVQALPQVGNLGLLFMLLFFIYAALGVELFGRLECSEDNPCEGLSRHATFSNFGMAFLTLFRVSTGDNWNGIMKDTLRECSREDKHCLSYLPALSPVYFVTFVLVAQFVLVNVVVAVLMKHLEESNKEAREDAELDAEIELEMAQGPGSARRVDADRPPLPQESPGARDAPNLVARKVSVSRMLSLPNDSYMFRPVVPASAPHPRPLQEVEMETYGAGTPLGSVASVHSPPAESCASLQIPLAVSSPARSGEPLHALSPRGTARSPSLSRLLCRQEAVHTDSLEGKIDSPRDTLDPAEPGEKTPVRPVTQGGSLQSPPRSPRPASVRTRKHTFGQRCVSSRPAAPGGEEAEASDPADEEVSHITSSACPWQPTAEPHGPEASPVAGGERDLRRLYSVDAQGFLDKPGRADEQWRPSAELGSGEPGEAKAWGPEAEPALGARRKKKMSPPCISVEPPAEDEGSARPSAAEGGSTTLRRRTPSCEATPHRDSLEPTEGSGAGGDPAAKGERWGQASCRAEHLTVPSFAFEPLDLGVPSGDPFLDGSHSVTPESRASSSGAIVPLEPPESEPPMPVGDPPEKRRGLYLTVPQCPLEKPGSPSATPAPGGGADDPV

As for kurtoxin (from UniProt P58910), the Kd – broadly, the constant that tells how readily two partners part at equilibrium – was 61 nM in data set [1] and 15 nM in data set [2].
